According to patent publication US20130071400A1, “LINGO binding molecules and Pharmaceutical Use Thereof” (NOVARTIS AG, priority 2006, published 2013):

T1: cell surface LINGO-1 in CHO-K1-hLINGO-1 cells (Homo sapiens, UniProt Q96FE5)
T1 construct: expressed in transfected cells
T1 sequence (Q96FE5 34-614 isoform Q96FE5-2): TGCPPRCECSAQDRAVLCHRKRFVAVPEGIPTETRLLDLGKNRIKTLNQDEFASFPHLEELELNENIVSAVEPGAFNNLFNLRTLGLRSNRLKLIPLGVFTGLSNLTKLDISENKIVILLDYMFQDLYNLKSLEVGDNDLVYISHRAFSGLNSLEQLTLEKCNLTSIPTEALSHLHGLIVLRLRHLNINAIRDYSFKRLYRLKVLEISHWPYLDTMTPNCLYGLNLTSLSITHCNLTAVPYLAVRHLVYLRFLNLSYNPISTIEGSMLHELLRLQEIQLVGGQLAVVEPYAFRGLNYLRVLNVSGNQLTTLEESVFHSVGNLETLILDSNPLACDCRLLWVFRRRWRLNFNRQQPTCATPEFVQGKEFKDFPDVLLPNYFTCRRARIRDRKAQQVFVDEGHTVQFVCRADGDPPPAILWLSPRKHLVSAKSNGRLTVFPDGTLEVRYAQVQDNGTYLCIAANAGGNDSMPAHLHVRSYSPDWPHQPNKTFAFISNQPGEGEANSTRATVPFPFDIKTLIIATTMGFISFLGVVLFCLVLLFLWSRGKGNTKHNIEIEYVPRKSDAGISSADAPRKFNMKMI


Legend:
[1] = molecular target: T1, cell surface LINGO-1 in CHO-K1-hLINGO-1 cells; assay: Downregulation of cell surface LINGO-1 (anti-V5 detection, TMB-ELISA); type: cell-based; conditions: 100 nM IgG4, 24 hrs at 37° C., CHO-K1-hLINGO-1 cells (FIG. 6A)
Description: A) Untransfected CHO-K1 or CHO-K1-hLINGO-1 cells are incubated at 37° C. for 24 hrs with 100 nM 4784, 4785 and 3207 and LINGO-1 detected at the cell surface by a further incubation at room temperature for 30 min with the anti-V5 antibody. The cells are fixed with 4% PFA, blocked with BSA and bound anti-V5 antibody detected using an anti-mouse-IgG (Fc specific)-POD conjugate that is subsequently developed using a 1-Step™ Turbo TMB ELISA kit. The absorbance at 450 nm is taken as a measure of the amount of LINGO-1 at the cell surface (mean of triplicates±STD). A very low level of anti-V5 antibody binding is observed to untransfected CHO-K1 cells. Incubation of CHO-K1-hLINGO-1 cells with anti-LINGO-1 antibodies but not the control IgG4 3207 result in a significant reduction in the amount of LINGO-1 at the cell surface **p<0.01, one-way ANOVA with a Holm-Sidak comparison to the absorbance following incubation with the control IgG4 3207.
To determine the effect of anti-LINGO-1 antibodies on the amount of cell surface LINGO-1, untransfected CHO-K1 or CHO-K1-hLINGO-1 cells (see Example 1) are incubated at 37° C. for 24 hrs with 100 nM 4784, 4785 or 3207 and cell surface LINGO-1 is subsequently detected with an anti-V5 antibody followed by an anti-mouse IgG (Fc specific)-POD conjugate developed with a 1-Step™ Turbo TMB-ELISA kit (Pierce) (FIG. 6A).

[2] = system: freshly isolated rat OPCs; assay: Primary oligodendrocyte differentiation assay; type: cell-based; conditions: 100 nM IgG4, 3 days in DMEM/CNTF/T3 medium; three independent experiments (FIG. 5)
Description: A) Freshly isolated OPCs are treated with 100 nM 4784, 4785 or control IgG4 3207 for 3 days in DMEM/CNTF/T3 medium followed by staining with the anti-04 antibody to visualise immature and mature oligodendrocytes (larger, more diffuse labeling) and the nucleic acid dye DAPI (4′,6-diamidin-2′-phenyl-indol-dihydrochloride) to visualise cell nuclei (smaller circular dots). Oligodendrocytes bearing highly arborised and extended processes and myelin sheet-like structures are considered to have a mature morphology and are indicated with white arrows. Anti-LINGO-1 antibody treatment results in an increase in the proportion of O4-positive cells with a mature morphology whereas treatment with control IgG4 3207 has no effect.
B) The proportion of total (left graph) and mature (right graph) oligodendrocytes is quantified in three independent experiments (1, 2, 3). The left bar graph depicts the percentage of DAPI-stained nuclei associated with O4-staining and the right bar graph depicts the percentage of O4-positive cells with a mature morphology (mean of triplicates+STD). […]
Enriched populations of OPCs are isolated from OFA P3 rats. […] To assess the purity of the cultures with respect to the oligodendrocyte lineage, the percentage of cells that are stained with the anti-04 antibody is quantified after 7 days of culture in SATO medium. […]

Row | amount of cell surface LINGO-1 (absorbance at 450 nm) [1] | Molecule | proportion of oligodendrocytes (O4-positive cells) with a mature morphology [2]
1 | significantly downregulate | IgG4 4785: monoclonal human anti-LINGO-1 IgG4 antibody; VL SEQ ID NO: 6, VH SEQ ID NO: 7 (antibody, V domains shown, IgG4; 4785 VH; 4785 VL) VH: QVQLQQSGPGLVKPSQTLSLTCAISGDSVSDNSAAWSWIRQSPGRGLEWLGLIYLRSKWDNDYAVSVKSRITINPDTSKNQFSLQLNSVTPEDTAVYYCARTGRADEFDVWGQGTLVTVSS VL: DIVLTQPPSVSGAPGQRVTISCSGSSSNIGNNYVSWYQQLPGTAPKLLISRNSKRPSGVPDRFSGSKSGTSASLAITGLQSEDEADYYCSTYDTFSIVFGGGTKLTVLG | significantly increase
2 | significantly downregulate | IgG4 4784: monoclonal human anti-LINGO-1 IgG4 antibody; VL SEQ ID NO: 4, VH SEQ ID NO: 5 (antibody, V domains shown, IgG4; 4784 VH; 4784 VL) VH: QVQLKESGPALVKPTQTLTLTCTFSGFSLSSSGVGVGWIRQPPGKALEWLAHIGSDDDKYYSTSLKTRLTISKDTSKNQVVLTMTNMDPVDTATYYCARNQQYGDGYPGYFDYWGQGTLVTVSS VL: DIELTQPPSVSVAPGQTARISCSGDNIGNYYVYWYQQKPGQAPVLVIYEDTNRPSGIPERFSGSNSGNTATLTISGTQAEDEADYYCQSYDNLHEQVFGGGTKLTVLG | significantly increase
